The target of test [1] is PyoS5_(1–315) (P. aeruginosa) (UniProt Q9I4Y4). Description: SPR. On the technique in general: SPR reads the build-up and loss of mass on a sensor chip optically.
Test [2] shares this target. The test is described as follows: SPR. The source holds these as a separate data set.

Like-named read-outs stand apart in the source and are kept apart here.

The Kd is the free concentration of one partner at which half of the binding sites on the other are occupied at equilibrium, for simple one-to-one binding. A higher Kd goes with lower affinity. For the substance TonB1_(109–342) (domain or fragment), the Kd in test [1] came out at 0.241 µM; in test [2], 0.23 µM.

The values are drawn from article PMC7064778.
